For one data set, the system named is CMS5 cells. Put plainly: Killing effect of puromycin on CMS5 cells (trypan blue staining, microscope). The following applies: puromycin 5 μg/mL, 24 h of culture. It counts as cell-based. As for the experimental part:
In order to determine the killing dose of puromycin to CMS5, CMS5 cells were cultured in RPMI1640 (10% FBS, 1% […]) complete media with different concentrations of puromycin. 24 h later, cells were stained with trypan blue and observed under a microscope for mortality to determine the drug concentration for 100% lethality of CMS5 cells as the drug pressure for CMS5-VP1 cell line screening. […] After 24 h of culture, the CMS5 cells digested with trypsin were stained with trypan blue and the lethality of the cells was calculated microscopically to determine the final puromycin drug concentration. […]

The subject of data set [1] is DTH (delayed type hypersensitivity). Put plainly: Delayed type hypersensitivity (DTH), foot pad / paw swelling after antigen injection. It counts as in vivo, mice. The note with it: Example 13; two immunizations; 24 h after injection of rVP1; therapeutic vaccine groups compared with Vac group. As for the experimental part:
Delayed Type Hypersensitivity (DTH): the mice were immunized with the vaccine, and 7 days after the final immunization, 10 μL of antigen protein (10 μg) was injected into the hindfoot pad on the immunized side (right side) of the mice, and 10 μL of phosphate buffer was injected into the hindfoot pad on the side opposite to the immunized side (left side). The thickness of both hindfoot pads of the mice was measured 24 h and 48 h after DTH with a vernier caliper, and the measurement was performed three times at the same site to take the average. DTH value (mm)=right foot pad thickness−left foot pad thickness.
On day 7 after the immunization program, mice were injected with 10 μL of PBS or 10 μg of rVP1 (10 μL) at the left and right hind limb paws.
The paw swelling thickness was calculated for each experimental group according to the formula, and the differences between all vaccine groups were analyzed with GraphPad Prism statistical software.

For data set [2], the system named is anti-VP1 antibody in serum. Put plainly: VP1-specific antibody titer in serum of immunized mice by ELISA. It counts as in vivo, BALB/c mice. The note with it: Example 14; antigen adsorbed to Al(OH)3, i.m. days 0 and 14, blood day 28; plate coated with sVP1. On the procedure:
Enzyme-linked immunosorbent assay: on day 21, blood samples were collected from the mice, and the serum was determined for specific antibody titer by ELISA. When the antibody concentration in the mouse serum needs to be semi-quantitatively determined, a standard curve is added on the basis of the conventional ELISA, and the concentration of the antibody in the mouse serum is determined according to the concentration of the standard curve.
Blood was taken from the fundus of BALB/c mice who have completed the immunization program on day 28 after the initial immunization and left to stand at 4° C. overnight. The blood was centrifuged at 6000 rpm for 10 min to obtain serum. The level of anti-VP1 antibody in serum was determined by ELISA. The specific procedures were as follows: […]
The optical absorbance values were read at OD450/OD620 nm, and a value of 2.1 times the OD value of the negative control group was taken as a cutoff value. […]
In order to obtain a large amount of VP1, VP1 expressed under high-temperature induction in a fermentation tank mainly formed inclusion bodies. […] The antigen-specific antibody titer was determined by enzyme-linked immunosorbent assay (ELISA), and the specific procedures were as follows: […]
Reading: optical absorbance values were read at OD450/OD620. […]
Background: In an ELISA, binding on a coated surface is turned into a signal by an enzyme label.

Data set [3] can be described thus: Particle size by nano particle sizer. It is filed as physicochemical. As for the experimental part:
5) The VP1 was detected for pentamer formation by Nu-PAGE. The MCV-VP1 particle size was measured using a nano particle sizer.
3) Reassembled (also known as self-assembled) recombinant VP1 was named (rVP1), and rVP1 was filtered through a […] needle filter for sterilization, detected for the pentamer structure by Nu-PAGE, and measured for the particle size by a nano particle sizer.

As to `COc1ccc(C[C@H](N)C(=O)N[C@H]2[C@@H](O)[C@H](n3cnc4c(N(C)C)ncnc43)O[C@@H]2CO)cc1` [puromycin], in the data set on CMS5 cells, the “dead CMS5 cells, trypan blue staining” value turned out to be 100% and the “state of the cells observed under a microscope” value is listed as “died in large numbers”.

B1: rVP1: recombinant VP1 from inclusion bodies, disassembled with DTT/EGTA and reassembled under GSSG-GSH condition (protein)
chain: MAPKRKASSTCKTPKRQCIPKPGCCPNVASVPKLLVKGGVEVLSVVTGEDSITQIELYLNPRMGVNSPDLPTTSNWYTYTYDLQPKGSSPDQPIKENLPAYSVARVSLPMLNEDITCDTLQMWEAISVKTEVVGISSLINVHYWDMKRVHDYGAGIPVSGVNYHMFAIGGEPLDLQGLVLDYQTEYPKTTNGGPITIETVLGRKMTPKNQGLDPQAKAKLDKDGNYPIEVWCPDPSKNENSRYYGSIQTGSQTPTVLQFSNTLTTVLLDENGVGPLCKGDGLFISCADIVGFLFKTSGKMALHGLPRYFNVTLRKRWVKNPYPVVNLINSLFSNLMPKVSGQPMEGKDNQVEEVRIYEGSEQLPGDPDIVRFLDKFGQEKTVYPKPSVAPAAVTFQSNQQDKGKAPLKGPQKASQKESQTQELHHHHHH
B1: in data set [1], the “DTH reaction (paw swelling thickness)” value is reported as “not significant”. Besides, the “antigen-specific antibody titer relative to sVP1” value in data set [2] is reported as “twice those of sVP1”. The particle size in data set [3] is given as 115.3 nm.

B2: sVP1: soluble VP1 expressed under low-temperature induction (protein)
chain: B1 chain
As to B2, the particle size entry in data set [3] is “much higher than that of rVP1”.

Source of the values: patent US12691168B2, “Vaccine for preventing and treating Merkel cell carcinoma” (priority 2020, dated 2026).
